# Data published in the supplement of paper PMC9732359.
# ± gives the uncertainty stated by the source.
# Experiment: protein stability index of a GFP-peptide fusion (yeast GPS) (PSI 1-4); higher = more stable; sorted into four equal gates, so the index is relative within each strain
# Method in brief: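 Plasmids isolated from each sorting gate were PCR-amplified and Illumina-sequenced, and barcodes assigned the reads to strains. The gates, four of equal size, were set by GFP/Cherry fluorescence ratio on mid-log cultures in leucine-free medium. These cultures were yeast carrying a pooled library of tiled 17-residue yeast protein peptides fused downstream of GFP on a plasmid that also expresses Cherry. The protein stability index is the sum of every gate's read frequency times its gate number.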
Sequence,protein stability index (doa10∆),protein stability index (pdr5∆),protein stability index (san1∆),protein stability index (ubr1∆)
MDIAERIAVLHQKTKTL [YGL172W/NUP49],2.14 ± 0.076,1.67 ± 0.058,1.81 ± 0.11,1.51 ± 0.067
NKPAIKEDSTIQDSNGD [SWI3],2.92 ± 0.076,3.05 ± 0.073,3.14 ± 0.06,3.04 ± 0.054
QHIYPSSTPGVANYSAM [GAL11],2.85 ± 0.11,2.7 ± 0.12,3.01 ± 0.11,2.81 ± 0.14
IIYPRSQTTLVQFGLNE [ARP9],3.04 ± 0.19,1.33 ± 0.082,2.03 ± 0.12,1.26 ± 0.17
RRILPKPSRTSRQVQKR [RPS7A],–,3.44 ± 0.15,2.74 ± 0.1,3.35 ± 0.14
MILNYNPSQGVSNSGAQ [UBP6],3.25 ± 0.096,3.37 ± 0.086,3.14 ± 0.064,3.25 ± 0.055
ISEINFLHESSFDSIDH [CSI1],2.54 ± 0.05,2.95 ± 0.06,2.51 ± 0.069,2.84 ± 0.041
TGAASNQSSFNFGNNGA [YOR098C/NUP1],2.65 ± 0.11,2.79 ± 0.099,2.5 ± 0.096,2.93 ± 0.074
PIDAGLNEAPFPEENII [MCD1],3.01 ± 0.069,2.88 ± 0.054,3.06 ± 0.033,2.96 ± 0.041
LEEEFVSNSEILKPFEK [RPT2],2.85 ± 0.074,2.88 ± 0.054,3.05 ± 0.073,2.51 ± 0.14
AGALNLASPEVKVHMDS [DIS3],3.06 ± 0.083,3.4 ± 0.069,2.99 ± 0.07,3.04 ± 0.052
KTVQSMTQRAIQSAESI [SWI3],2.5 ± 0.11,1.8 ± 0.079,2.53 ± 0.13,1.82 ± 0.12
ARRLKNRAARDRRAQRV [RPL19A],2.97 ± 0.14,3.43 ± 0.1,2.57 ± 0.13,3.17 ± 0.062
NQINSFWSLHSSTYYNL [NUT1],2.34 ± 0.064,1.75 ± 0.049,1.72 ± 0.073,1.57 ± 0.036
AIMNCADNSGARNLYII [RPL23A],2.33 ± 0.089,3.14 ± 0.17,2.52 ± 0.14,3.1 ± 0.17
FPEENIIDAKTRNEQTT [MCD1],3.29 ± 0.09,3.16 ± 0.057,3.19 ± 0.052,3.08 ± 0.054
NQLVEPNRIKLSKEVPF [SRB5],2.42 ± 0.038,2.44 ± 0.037,2.46 ± 0.042,2.23 ± 0.025
SENRDKFLQEFINLLLN [IRR1],2.53 ± 0.069,2.07 ± 0.083,2.43 ± 0.076,2.21 ± 0.069
YMVSRAIRDGVIEAKIN [RPN3],–,3.28 ± 0.17,2.95 ± 0.12,2.8 ± 0.15
SSTDIPSYTHVLISKLS [RRI1],2.13 ± 0.045,2.42 ± 0.048,2.42 ± 0.049,2.35 ± 0.037
DYVTNPDTKISSAAILG [RPN1],2.42 ± 0.087,2.43 ± 0.1,2.21 ± 0.17,1.91 ± 0.1
TTQIDLFRIFSMSEEFK [BRR2],2.4 ± 0.14,3.12 ± 0.1,2.49 ± 0.23,3.12 ± 0.073
VTEANIIKLVEGLANDP [RPS12],2.51 ± 0.12,2.76 ± 0.073,2.67 ± 0.085,2.73 ± 0.073
NQNTLKEISARRYKLLT [POP1],2.13 ± 0.049,2.35 ± 0.045,2.1 ± 0.067,2.65 ± 0.045
PHLFVNGDLTVSLCAKN [SSN2],1.95 ± 0.079,2.12 ± 0.081,2.25 ± 0.18,1.87 ± 0.074
LTYLYEMKNIRGPYLVI [SNF2],1.22 ± 0.059,1.32 ± 0.04,1.27 ± 0.098,1.22 ± 0.042

Sequence,protein stability index (doa10∆),protein stability index (pdr5∆),protein stability index (san1∆),protein stability index (ubr1∆)
DSNKTLLHNHLKSIESL [SMC2],1.87 ± 0.089,2.44 ± 0.095,1.49 ± 0.22,2.78 ± 0.11
IWKESLIELSGGQRSLI [SMC2],1.75 ± 0.14,2.12 ± 0.091,1.98 ± 0.16,1.56 ± 0.12
ATKDNELNVKHVKQCQE [SMC2],2.96 ± 0.1,3.35 ± 0.2,2.97 ± 0.066,3.32 ± 0.05
VPSAKPLILTPPQLANQ [SNF11],2.63 ± 0.049,2.26 ± 0.052,2.64 ± 0.052,2.03 ± 0.033
TGGLFGAKPAGSTGGLG [YGL172W/NUP49],3.39 ± 0.13,3.42 ± 0.24,3.23 ± 0.1,3.54 ± 0.07
VSCYRPRRDGERKRKSV [RPS6A],1.79 ± 0.22,2.91 ± 0.17,3.51 ± 0.13,3.38 ± 0.082
ASSAVMNRRKIAMPKRR [YLR335W/NUP2],1.19 ± 0.074,1.3 ± 0.071,1.23 ± 0.2,1.16 ± 0.11
TAVLSTTARAKARAKKT [RPN2],3.31 ± 0.11,3.17 ± 0.077,3.15 ± 0.075,3.19 ± 0.072
DVFNLLPNLGTPDDDEI [RPN8],1.96 ± 0.071,2.02 ± 0.079,1.43 ± 0.12,1.43 ± 0.056
TFSYVDSSLQPEYFESP [YMR129W/POM152],3.22 ± 0.2,3.07 ± 0.13,–,3.08 ± 0.22
DEELVSHFVSAVSTIAS [RPP0],3.73 ± 0.21,3.12 ± 0.28,2.76 ± 0.18,2.03 ± 0.2
EGWFYKRAASVARHIYM [RPS19A],1.97 ± 0.16,2.51 ± 0.22,1.99 ± 0.14,2.33 ± 0.17
KFPDMGSLWVEFCDEPS [RPB5],2.75 ± 0.044,2.89 ± 0.06,2.9 ± 0.066,2.96 ± 0.045
LREAPADYWTHAYRDVL [SNF6],2.55 ± 0.12,2.7 ± 0.1,3.42 ± 0.17,2.38 ± 0.061
ILGELKRVKSYMDKAKQ [LRP1],2.23 ± 0.079,2.35 ± 0.082,1.89 ± 0.12,2.36 ± 0.065
LKKANIIYHTTFSWLNA [YLR018C/POM34],2.46 ± 0.043,2.45 ± 0.044,2.41 ± 0.043,2.54 ± 0.036
DAPFNKVVLKALFLSKI [RPL18A],1.55 ± 0.1,1.56 ± 0.074,1.25 ± 0.13,1.32 ± 0.067
KDRYINGDKKVDIYSLP [YMR129W/POM152],3.15 ± 0.091,2.77 ± 0.094,3.03 ± 0.042,3.23 ± 0.069
LLIATNLKEYNKFMSIF [SRB8],1.64 ± 0.051,1.82 ± 0.089,2.17 ± 0.2,1.94 ± 0.086
CSHIFTSDQKNKRTQFS [RPB9],2.52 ± 0.058,2.72 ± 0.052,2.47 ± 0.068,2.53 ± 0.043
LWVFQAFTCFCIKKIME [SRB8],1.69 ± 0.044,1.52 ± 0.04,1.27 ± 0.073,1.48 ± 0.037
NTSLNINGWKFESLPLK [SWP82],2.88 ± 0.055,2.96 ± 0.05,2.96 ± 0.053,3.06 ± 0.043
YFLDVKCPGCLNITTVF [RPS27A],2.64 ± 0.054,2.6 ± 0.055,2.19 ± 0.1,2.85 ± 0.054
KLVRDAFALAKEKAPTI [RPT5],2.56 ± 0.072,2.49 ± 0.09,2.94 ± 0.083,3.08 ± 0.083
DQYDAERDFYHSLREYI [RPO31],3.33 ± 0.076,3 ± 0.12,3.07 ± 0.074,3.3 ± 0.091
KTTNTTPSFSFGAKSDE [YJL041W/NSP1],3.27 ± 0.079,3.24 ± 0.082,3.09 ± 0.035,3.18 ± 0.048
